Data: doi:10.1101/2023.04.12.536585, “Allosteric activation or inhibition of PI3Kγ mediated through conformational changes in the p110γ helical domain” (bioRxiv, 2023)

What was measured:
Test in all cases: BLI; His-tagged NB7 (500 nM) immobilised on Anti-Penta-His biosensor, dipped into PI3K in solution; dose response 50-1.9 nM for p110γ, p110γ-p84, p110γ-p101; 50 nM for the class IA comparison; 25 nM for phosphorylated and non-phosphorylated p110γ; Octet buffer 20 mM Tris pH 8.5, 100 mM NaCl, 50 mM ammonium sulfate, 0.1% BSA, 0.02% Tween 20; global fit to a 1:1 model
Settings in all cases: both partners purified
[1] = biological target: T1, p110γ-p84 complex (human p110γ, mouse p84) (Homo sapiens p110γ; Mus musculus p84, UniProt P48736;Q3U6Q4)
T1 construct: p110γ catalytic subunit, human; plasmid pMultiBac-hsp110γ-mmp84 (MR24); p84 regulatory subunit of PI3Kγ, Mus musculus; The tag stood on p84 for purification and was cleaved by TEV on the column; also called p110/p84; not shown: 10xHis, N-terminal, cleaved; 2xStrep, N-terminal, cleaved

[2] = biological target: T2, p110γ-p101 complex (human p110γ, porcine p101) (Homo sapiens p110γ; Sus scrofa p101, UniProt P48736;O02696)
T2 construct: p110γ catalytic subunit, human; plasmid pMultiBac-hsp110γ-ssp101 (MR22); full length p110γ in the p110γ-p101 model PDB 7MEZ; p101 regulatory subunit of PI3Kγ, Sus scrofa; The tag stood on p101 for purification and was cleaved by TEV on the column; also called p110/p101; not shown: 10xHis, N-terminal, cleaved; 2xStrep, N-terminal, cleaved

[3] = biological target: T3, p110α-p85α complex (Homo sapiens (assumed), UniProt P42336;P27986)
T3 construct: p110α class IA PI3K catalytic subunit; plasmid pFASTBac p110α (pOV1181); p85α class IA regulatory subunit; Plasmids as described in Dornan et al., 2017 and Siempelkamp et al., 2017; also called PI3Kα; source: PI3Kα gel filtration buffer

[4] = biological target: T4, p110β-p85β complex (Homo sapiens (assumed), UniProt P42338;O00459)
T4 construct: p110β class IA PI3K catalytic subunit; plasmid pFASTBac p110β (pOV1182); p85β class IA regulatory subunit; also called PI3Kβ; source: PI3Kα gel filtration buffer

[5] = biological target: T5, p110δ-p85β complex (Homo sapiens (assumed), UniProt O00329;O00459)
T5 construct: p110δ class IA PI3K catalytic subunit; plasmid pFASTBac p110δ (pOV1183); p85β class IA regulatory subunit; also called PI3Kδ; source: PI3Kα gel filtration buffer
T5 sequence (O00329 whole entry, stated change not applied, chain 1 of 2): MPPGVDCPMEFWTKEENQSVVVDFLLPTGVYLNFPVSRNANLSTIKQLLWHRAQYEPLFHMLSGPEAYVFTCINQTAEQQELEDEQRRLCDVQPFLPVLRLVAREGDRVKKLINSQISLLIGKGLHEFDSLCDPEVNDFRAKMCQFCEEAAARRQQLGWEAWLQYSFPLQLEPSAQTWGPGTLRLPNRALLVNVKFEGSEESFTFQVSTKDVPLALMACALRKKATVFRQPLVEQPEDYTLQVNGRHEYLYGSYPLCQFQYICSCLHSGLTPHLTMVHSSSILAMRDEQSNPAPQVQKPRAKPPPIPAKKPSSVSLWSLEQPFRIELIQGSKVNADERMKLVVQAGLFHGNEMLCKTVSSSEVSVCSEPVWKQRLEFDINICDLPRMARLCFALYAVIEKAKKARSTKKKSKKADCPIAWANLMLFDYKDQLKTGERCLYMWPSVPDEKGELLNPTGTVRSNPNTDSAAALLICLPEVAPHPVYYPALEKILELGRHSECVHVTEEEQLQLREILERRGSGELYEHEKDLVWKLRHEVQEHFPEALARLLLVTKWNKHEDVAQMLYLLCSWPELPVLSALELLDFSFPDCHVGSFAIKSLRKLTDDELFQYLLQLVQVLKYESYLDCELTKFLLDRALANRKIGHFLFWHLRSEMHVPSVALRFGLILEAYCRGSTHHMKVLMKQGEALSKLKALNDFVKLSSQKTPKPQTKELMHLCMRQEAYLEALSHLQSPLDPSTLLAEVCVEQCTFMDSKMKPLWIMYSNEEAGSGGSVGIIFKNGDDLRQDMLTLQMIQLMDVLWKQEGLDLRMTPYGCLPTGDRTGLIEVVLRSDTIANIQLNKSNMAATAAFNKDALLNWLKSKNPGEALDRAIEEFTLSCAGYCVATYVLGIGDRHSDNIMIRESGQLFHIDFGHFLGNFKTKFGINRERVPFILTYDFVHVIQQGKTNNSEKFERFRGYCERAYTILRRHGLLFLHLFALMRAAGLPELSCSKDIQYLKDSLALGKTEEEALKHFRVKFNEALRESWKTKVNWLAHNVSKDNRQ
T5 sequence (O00459 whole entry, stated change not applied, chain 2 of 2): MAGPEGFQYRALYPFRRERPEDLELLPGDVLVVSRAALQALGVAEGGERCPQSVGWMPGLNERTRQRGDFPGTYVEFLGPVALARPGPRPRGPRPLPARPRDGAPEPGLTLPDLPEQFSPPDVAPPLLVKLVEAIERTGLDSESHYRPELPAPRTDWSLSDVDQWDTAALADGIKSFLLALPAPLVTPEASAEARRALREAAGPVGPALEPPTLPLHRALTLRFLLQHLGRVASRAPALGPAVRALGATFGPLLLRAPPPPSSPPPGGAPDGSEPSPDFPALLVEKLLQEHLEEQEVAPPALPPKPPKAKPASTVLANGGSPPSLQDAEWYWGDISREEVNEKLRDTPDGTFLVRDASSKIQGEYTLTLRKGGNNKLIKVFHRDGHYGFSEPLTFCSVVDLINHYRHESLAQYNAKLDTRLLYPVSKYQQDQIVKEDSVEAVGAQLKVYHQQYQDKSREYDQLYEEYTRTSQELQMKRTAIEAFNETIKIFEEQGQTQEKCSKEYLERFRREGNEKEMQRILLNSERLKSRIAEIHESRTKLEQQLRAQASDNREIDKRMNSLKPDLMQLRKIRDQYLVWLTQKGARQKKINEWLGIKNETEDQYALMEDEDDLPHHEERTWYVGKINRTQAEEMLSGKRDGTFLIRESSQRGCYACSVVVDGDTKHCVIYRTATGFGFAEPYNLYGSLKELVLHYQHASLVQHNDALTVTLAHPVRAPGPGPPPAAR

T4 sequence (P42338 whole entry, chain 1 of 2): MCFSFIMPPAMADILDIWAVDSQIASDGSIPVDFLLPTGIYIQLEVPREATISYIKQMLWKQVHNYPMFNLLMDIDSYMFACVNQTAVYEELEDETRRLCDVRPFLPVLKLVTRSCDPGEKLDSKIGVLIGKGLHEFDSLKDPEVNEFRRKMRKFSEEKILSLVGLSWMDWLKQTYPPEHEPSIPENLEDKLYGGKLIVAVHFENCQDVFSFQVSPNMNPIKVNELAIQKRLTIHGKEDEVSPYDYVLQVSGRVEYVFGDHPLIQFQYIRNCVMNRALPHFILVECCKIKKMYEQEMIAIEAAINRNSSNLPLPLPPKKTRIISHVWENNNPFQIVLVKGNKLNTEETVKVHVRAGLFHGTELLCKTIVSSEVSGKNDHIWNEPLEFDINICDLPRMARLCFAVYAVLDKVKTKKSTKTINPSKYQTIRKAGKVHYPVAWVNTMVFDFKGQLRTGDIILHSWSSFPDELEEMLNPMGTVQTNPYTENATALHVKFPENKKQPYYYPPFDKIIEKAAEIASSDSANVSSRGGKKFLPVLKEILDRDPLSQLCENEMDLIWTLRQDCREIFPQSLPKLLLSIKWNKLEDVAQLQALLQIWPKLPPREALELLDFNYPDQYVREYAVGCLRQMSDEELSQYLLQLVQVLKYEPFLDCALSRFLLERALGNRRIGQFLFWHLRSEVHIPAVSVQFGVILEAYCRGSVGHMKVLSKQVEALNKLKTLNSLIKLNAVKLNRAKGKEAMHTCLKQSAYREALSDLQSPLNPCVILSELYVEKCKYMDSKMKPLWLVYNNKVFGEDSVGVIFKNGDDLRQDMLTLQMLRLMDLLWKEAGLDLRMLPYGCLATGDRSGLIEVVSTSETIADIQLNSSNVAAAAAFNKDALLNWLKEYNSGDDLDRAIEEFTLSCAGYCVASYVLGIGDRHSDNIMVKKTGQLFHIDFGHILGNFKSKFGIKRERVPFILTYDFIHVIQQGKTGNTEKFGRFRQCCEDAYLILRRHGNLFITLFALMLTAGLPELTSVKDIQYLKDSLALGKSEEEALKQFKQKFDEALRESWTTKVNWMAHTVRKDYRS
T4 sequence (O00459 whole entry, chain 2 of 2): as the sequence (O00459 whole entry, stated change not applied, chain 2 of 2) above
T3 sequence (P42336 whole entry, chain 1 of 2): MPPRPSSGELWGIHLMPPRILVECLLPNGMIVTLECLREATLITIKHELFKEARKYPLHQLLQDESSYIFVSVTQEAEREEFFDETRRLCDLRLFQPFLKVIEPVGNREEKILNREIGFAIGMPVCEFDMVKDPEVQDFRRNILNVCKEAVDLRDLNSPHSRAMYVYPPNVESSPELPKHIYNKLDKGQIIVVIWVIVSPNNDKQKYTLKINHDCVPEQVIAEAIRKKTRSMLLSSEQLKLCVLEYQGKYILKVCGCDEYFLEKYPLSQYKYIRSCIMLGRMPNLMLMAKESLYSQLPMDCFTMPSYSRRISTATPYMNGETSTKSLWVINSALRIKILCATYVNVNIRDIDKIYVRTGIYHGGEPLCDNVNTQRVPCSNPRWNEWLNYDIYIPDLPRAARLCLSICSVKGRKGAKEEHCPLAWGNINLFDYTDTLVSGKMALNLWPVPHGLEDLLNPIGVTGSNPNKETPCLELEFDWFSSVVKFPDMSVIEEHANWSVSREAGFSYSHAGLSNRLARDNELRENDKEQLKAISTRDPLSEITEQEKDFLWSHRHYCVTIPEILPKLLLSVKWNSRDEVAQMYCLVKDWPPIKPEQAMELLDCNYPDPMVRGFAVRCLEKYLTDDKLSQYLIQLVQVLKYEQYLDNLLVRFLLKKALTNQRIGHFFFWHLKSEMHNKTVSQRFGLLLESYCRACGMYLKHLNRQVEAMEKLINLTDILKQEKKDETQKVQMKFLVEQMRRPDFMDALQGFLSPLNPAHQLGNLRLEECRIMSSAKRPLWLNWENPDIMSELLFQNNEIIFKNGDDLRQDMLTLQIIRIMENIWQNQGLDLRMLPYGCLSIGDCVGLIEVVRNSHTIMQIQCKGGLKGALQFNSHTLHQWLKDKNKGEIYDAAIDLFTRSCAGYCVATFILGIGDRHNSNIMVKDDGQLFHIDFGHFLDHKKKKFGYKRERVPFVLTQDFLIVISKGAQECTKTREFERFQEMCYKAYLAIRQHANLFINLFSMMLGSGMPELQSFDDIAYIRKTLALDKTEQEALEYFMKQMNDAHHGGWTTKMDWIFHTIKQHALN
T3 sequence (P27986 whole entry, chain 2 of 2): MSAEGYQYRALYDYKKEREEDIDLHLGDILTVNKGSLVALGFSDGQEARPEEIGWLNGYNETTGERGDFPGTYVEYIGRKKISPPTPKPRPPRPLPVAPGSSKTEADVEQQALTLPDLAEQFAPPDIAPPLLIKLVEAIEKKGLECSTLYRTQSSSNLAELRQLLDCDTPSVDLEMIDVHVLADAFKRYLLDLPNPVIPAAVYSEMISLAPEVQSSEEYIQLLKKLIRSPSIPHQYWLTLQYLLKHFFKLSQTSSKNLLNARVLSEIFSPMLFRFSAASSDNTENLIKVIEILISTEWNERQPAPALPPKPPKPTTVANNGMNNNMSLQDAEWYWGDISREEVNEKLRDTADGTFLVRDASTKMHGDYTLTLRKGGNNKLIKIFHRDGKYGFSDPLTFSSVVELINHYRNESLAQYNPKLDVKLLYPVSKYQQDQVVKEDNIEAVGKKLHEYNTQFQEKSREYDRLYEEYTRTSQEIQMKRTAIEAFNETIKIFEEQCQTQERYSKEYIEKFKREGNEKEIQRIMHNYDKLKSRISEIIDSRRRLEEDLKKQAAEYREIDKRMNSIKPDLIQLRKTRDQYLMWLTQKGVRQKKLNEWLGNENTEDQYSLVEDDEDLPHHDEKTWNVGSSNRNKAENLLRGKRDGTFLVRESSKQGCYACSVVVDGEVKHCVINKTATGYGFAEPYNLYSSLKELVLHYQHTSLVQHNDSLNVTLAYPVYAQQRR

B1: Nanobody NB7-PIK3CG (VHH)
VHH: QVQLVESGGGLVQPGGSLRLSCAASGSIFSINAMGWYRQAPGKQRELVAHITSGGSTNYADSVKGRFTISRDNAKNTVYLQMNSLKPEDTAVYYCNEAGDPFLGSTWNGPPAFGSWGQGTQVTVSS
notes: Identified earlier (Rathinaswamy et al., 2021b); also called His-NB7; nanobody 7; source: E. coli WK6 periplasm (pMESy4 vector), purified (Ni-NTA, SEC); not shown: His6, C-terminal, kept
Kd [1]: ~2 nM | Kd [2]: ~2 nM | binding result [3]: no binding (tested: 50 nM) | binding result [4]: no binding (tested: 50 nM) | binding result [5]: no binding (tested: 50 nM)
